Assay results published in paper PMC11894413, “The conformational landscape of TRiC ring-opening and its underlying stepwise mechanism revealed by cryo-EM” (QRB Discovery, 2024).
One block for each binder: values may come before it.

Experiments:
[1] = target: T1, CCT4 subunit of yeast TRiC/CCT (yeast, UniProt P39078 1-528); test: cryo-EM structure; purified yeast TRiC, 1 mg/ml, with 1 mM ADP and 5 mM MgCl2, 15 min at 30 °C before freezing; five conformational states S1-S5 (closed to open) from one sample; contacts differ between the states; conditions: both partners purified
T1 construct: CCT4 subunit of the chaperonin TRiC/CCT, yeast; subunit of the purified hetero-oligomeric complex; Purified according to Zang et al., 2016; source: endogenous, purified from yeast lysate as part of TRiC (calmodulin resin, eluted with 2 mM EGTA)
T1 sequence (P39078 whole entry): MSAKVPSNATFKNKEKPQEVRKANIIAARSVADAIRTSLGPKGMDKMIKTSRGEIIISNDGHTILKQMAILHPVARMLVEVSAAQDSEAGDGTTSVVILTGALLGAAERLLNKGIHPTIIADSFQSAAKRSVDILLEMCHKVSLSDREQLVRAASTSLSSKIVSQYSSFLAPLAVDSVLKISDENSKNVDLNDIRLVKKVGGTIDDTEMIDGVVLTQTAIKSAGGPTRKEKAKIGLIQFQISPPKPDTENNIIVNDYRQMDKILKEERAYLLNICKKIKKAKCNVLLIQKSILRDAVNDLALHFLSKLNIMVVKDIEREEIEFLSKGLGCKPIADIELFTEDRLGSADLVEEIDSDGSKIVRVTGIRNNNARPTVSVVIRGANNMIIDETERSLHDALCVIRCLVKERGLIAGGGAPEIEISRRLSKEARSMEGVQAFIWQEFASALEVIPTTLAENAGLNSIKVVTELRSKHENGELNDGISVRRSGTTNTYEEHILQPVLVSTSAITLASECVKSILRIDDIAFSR

[2] = target: the molecule itself; test: as above

- binding result [1]: binds
B1: CCT2 subunit of yeast TRiC/CCT (natural protein, UniProt P39076 1-527, looked up)
chain: MSVQIFGDQVTEERAENARLSAFVGAIAVGDLVKSTLGPKGMDKLLQSASSNTCMVTNDGATILKSIPLDNPAAKVLVNISKVQDDEVGDGTTSVTVLSAELLREAEKLIDQSKIHPQTIIEGYRLASAAALDALTKAAVDNSHDKTMFREDLIHIAKTTLSSKILSQDKDHFAELATNAILRLKGSTNLEHIQIIKILGGKLSDSFLDEGFILAKKFGNNQPKRIENAKILIANTTLDTDKVKIFGTKFKVDSTAKLAQLEKAEREKMKNKIAKISKFGINTFINRQLIYDYPEQLFTDLGINSIEHADFEGVERLALVTGGEVVSTFDEPSKCKLGECDVIEEIMLGEQPFLKFSGCKAGEACTIVLRGATDQTLDEAERSLHDALSVLSQTTKETRTVLGGGCAEMVMSKAVDTEAQNIDGKKSLAVEAFARALRQLPTILADNAGFDSSELVSKLRSSIYNGISTSGLDLNNGTIADMRQLGIVESYKLKRAVVSSASEAAEVLLRVDNIIRARPRTANRQHM
notes: CCT2 subunit of the chaperonin TRiC/CCT, yeast; subunit of the purified hetero-oligomeric complex; Purified according to Zang et al., 2016; source: endogenous, purified from yeast lysate as part of TRiC (calmodulin resin, eluted with 2 mM EGTA)
- binding result [2]: binds

B2: CCT6 subunit of yeast TRiC/CCT (natural protein)
chain: not shown
notes: CCT6 subunit of the chaperonin TRiC/CCT, yeast; subunit of the purified hetero-oligomeric complex; Purified according to Zang et al., 2016; source: endogenous, purified from yeast lysate as part of TRiC (calmodulin resin, eluted with 2 mM EGTA)
- binding result [2]: binds
